# In patent publication US20230183338A1:
# pKd: −log10 of the molar value.
# Target: VEEV p62-E1 (Venezuelan equine encephalitis virus, TrD strain) (UniProt P09592)
# Test: surface plasmon resonance (Biacore T200), […]
substance,measurement,value
HRV-cleaved monovalent LDLRAD3(D1) (from UniProt A2AR95 18-70) (receptor),pKd,6.68
